Measured values: the supplement of paper PMC7125110
± gives the standard error. Variants at the floor of the assay were thinned out.

B1: glmS ribozyme (parent)
chain: AUAAAAGCGCCAGAACUACAGAAAUGUAGUUGACGAGGAGGAGGUUUAUCGAAUUUUCGGCGGAUGCCUCCAAA

Assays:
Conditions in all cases: with glucosamine-6-phosphate
glucosamine-6-phosphate [1] = variants of: B1; experiment: self-cleavage kobs at 640 uM GlcN6P; higher = faster cleavage; RNA array
Method in brief: (§1)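 Sequenced MiSeq chips were the platform: E. coli RNA polymerase transcribed barcoded ribozyme variants on them in situ, and a hybridised Cy3 probe tracked these at 37 °C. After glucosamine-6-phosphate (40 μM to 10 mM) in HEPES/KCl/Mg(OAc)2 buffer was flowed in, tiles were imaged over ~14 h. Signals normalised to baseline and to non-cleaving reference variants were reduced to per-tile medians and fit to one- or two-exponential decays to obtain kobs. kcat and KM were derived through weighted Michaelis–Menten fits across concentrations.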

glucosamine-6-phosphate [2] = variants of: B1; experiment: self-cleavage kobs at 2500 uM GlcN6P; higher = faster cleavage; RNA array
Method in brief: as §1

glucosamine-6-phosphate [3] = variants of: B1; experiment: self-cleavage kobs at 10000 uM GlcN6P; higher = faster cleavage; RNA array
Method in brief: as §1

Variant	self-cleavage kobs at 640 uM GlcN6P (glucosamine-6-phosphate [1]) [s⁻¹]	self-cleavage kobs at 2500 uM GlcN6P (glucosamine-6-phosphate [2]) [s⁻¹]	self-cleavage kobs at 10000 uM GlcN6P (glucosamine-6-phosphate [3]) [s⁻¹]
C8G C58U	< 1e-05	< 1e-05	< 1e-05
C8G A14U A42G	< 1e-05		
C11A G32C G41U A52U	< 1e-05		
C8A C10G A15G C16G C50A G63U	< 1e-05		
C11U G44U C70G	< 1e-05		
G9C C67G C68U	< 1e-05	< 1e-05	
C8A A33G C34A	< 1e-05		
C10U G29U U55G	< 1e-05	< 1e-05	
C10G C68G C71U	3.95e-05 ± 1.7e-05		
C8U C16A G35C A36U C71G	< 1e-05	< 1e-05	
G7U G43U C67G	< 1e-05		
C8A U49G C68G	0.000875 ± 0.00033		
C11A U30G U54G	4.96e-05 ± 1.4e-05	0.000114 ± 2.1e-05	
C11G A12U G41U A53G C67G	< 1e-05		
C11G U55G G59C	0.00067 ± 0.00021		
C8A C11G G59C C61U	< 1e-05	< 1e-05	
G9C A14G G37U G62C C71A	< 1e-05	< 1e-05	
C11G A14U A52U C68G	0.000115 ± 3.6e-05		
C11G C58G C70U	8.61e-05 ± 2.4e-05		
G9U C10U G38U G44C U49C	< 1e-05		
C11U A33C G41A	< 1e-05		
C11U G41U A48G	< 1e-05		
C8G G43A U46G	< 1e-05		< 1e-05
G9A G13C U57C	< 1e-05	< 1e-05	

Variant	self-cleavage kobs at 640 uM GlcN6P (glucosamine-6-phosphate [1]) [s⁻¹]	self-cleavage kobs at 2500 uM GlcN6P (glucosamine-6-phosphate [2]) [s⁻¹]	self-cleavage kobs at 10000 uM GlcN6P (glucosamine-6-phosphate [3]) [s⁻¹]
C11G U30G A42U A53U G63U U65A C68G	< 1e-05		
C8G C67U C70G	< 1e-05		
C8G G32U	< 1e-05	< 1e-05	
C11A C50G C61A	0.000272 ± 7.9e-05	0.000188 ± 3.7e-05	
C8G G35A U55C G60U C67A	< 1e-05	< 1e-05	
G7U A14G G60C C70A	< 1e-05		
C11A A33G A48C C67U	< 1e-05	< 1e-05	
G9C U31G U57A	< 1e-05		
C10U G13A U45G U49C	< 1e-05		
C10G G35A A42C	< 1e-05	< 1e-05	
G9C C10U U55A	< 1e-05	< 1e-05	
C11G U45G C71U	< 1e-05	< 1e-05	
G7U G35U A42G	< 1e-05	< 1e-05	
G9U U54G C68U	< 1e-05		
C10U A33G G40U	< 1e-05		
G7U A33U G37U G63A	< 1e-05	< 1e-05	
G9U C10A A42U G51A U54G G60C	< 1e-05		
C11A C67U C71G	0.000295 ± 9e-05	0.00108 ± 0.00018	4.96e-05 ± 1.3e-05
C8G A39U U46G U69G	< 1e-05	< 1e-05	
C8U U56G G63A	< 1e-05		
C8G C16U U57A	< 1e-05	< 1e-05	
C8A G44C U46A	< 1e-05	< 1e-05	
C11G G29C G59C	< 1e-05		
C8G A12G U49C	< 1e-05		

Variant	self-cleavage kobs at 640 uM GlcN6P (glucosamine-6-phosphate [1]) [s⁻¹]	self-cleavage kobs at 2500 uM GlcN6P (glucosamine-6-phosphate [2]) [s⁻¹]	self-cleavage kobs at 10000 uM GlcN6P (glucosamine-6-phosphate [3]) [s⁻¹]
C11G A36C G38U C50A U65G	< 1e-05	< 1e-05	< 1e-05
G9U C34U U55C G60C G63A	< 1e-05		
C10A C61G C67G	0.00401 ± 0.0011		
C11A U30C G38U	< 1e-05	< 1e-05	
G9U G59C G63C C70U	< 1e-05		
C11U A36C G43U C71A	< 1e-05		
G7U C8G G38C	< 1e-05		
C8A C34U A36U G59U G62A	< 1e-05		
C11G G44U C50G G62C	< 1e-05	< 1e-05	
C10A G35C C70U	< 1e-05		
C8G G13C G40A U56A G59U	< 1e-05		
G9A C10A U30C	< 1e-05	< 1e-05	
C8A A53G G63U	< 1e-05		
C10G G40U C71U	< 1e-05	< 1e-05	
G9C G32U C50U	< 1e-05		
G9U G29C U54G U69A	< 1e-05	< 1e-05	
C11U G35U C68G C70A	0.000984 ± 0.00032		
C11G G13U C50G G60U C61G	5.02e-05 ± 2.4e-05		
C10A C67U C68U	0.000489 ± 0.00014		
G9U U54C	< 1e-05		
C8A U31A G38C G40U C50G G60C C71A	< 1e-05		
C10A U46C U47A G59A	< 1e-05	< 1e-05	
C8U G9A G29U C58U	< 1e-05	< 1e-05	
